Six molecules from US20220135686A1 (SUNSHINE GUOJIAN PHARMACEUTICAL SHANGHAI, published 2022) can be followed below.

The target in experiment [1] is T1, PD-L1-His (human, UniProt Q9NZQ7 19-238).
T1 construct: extracellular domain; Expressed in HEK293F; also called recombinant protein PD-L1-His; not shown: polyhistidine tag
The experiment in a line: ELISA, coated PD-L1-His. On the technique in general: In an ELISA, binding on a coated surface is turned into a signal by an enzyme label.

Experiment [2] has as its target T2, PD-L1-ECD-hFc (human, UniProt Q9NZQ7 19-238).
T2 construct: extracellular domain; also called biotinylated PD-L1-ECD-hFc; not shown: Fc segment of human IgG1
The experiment in a line: ELISA, coated PD-L1-ECD-hFc. Here is the method: (§1) The plates were blocked with PBST containing 1% BSA. The antibodies to be tested were serially diluted, then transferred to the above plates coated with recombinant proteins, incubated at room temperature for half an hour and then the plates were washed; an appropriately diluted HRP-labeled goat anti-human antibody (Fc-Specific) (purchased from Sisgma) was added, incubated at room temperature for half an hour and then the plates were washed; chromogenic solution with TMB as a substrate was added at 100 μl/well, incubated at room temperature for 1˜5 min; 50 μl of stop solution (2M H₂SO₄) was added to stop the reaction. OD450 values were read with a microplate reader (SpectraMax 190). Graphing and data analysis were performed using GraphPad Prism6, and EC50 values were calculated.

In experiment [3] the target is T3, PD1-His (human, UniProt Q15116 25-170).
T3 construct: extracellular domain; Expressed in HEK293F; also called recombinant protein PD1-His; not shown: polyhistidine tag
The experiment in a line: ELISA, plate coated with PD1-His 10 ng/well, OD450.

Experiment [4] addresses T4, PD1-ECD-hFc (human, UniProt Q15116 25-170).
T4 construct: extracellular domain; also called Human PD-1-ECD-hFc; human PD1-ECD-hFc; not shown: Fc segment of human IgG1
Kind of experiment: ELISA, plate coated with PD1-ECD-hFc 10 ng/well, OD450. The method, then: as §1

Experiment [5] has as its target T1, PD-L1-His. Kind of experiment: SPR (Biacore 8K), antibody captured on Protein A/G chip, PD-L1-His injected. The method, then:
(§2) Herein, the affinity of the above antibodies to PD-1 or PD-L1 was determined by Biacore 8K (GE healthcare). On Biacore 8K, the chip coupled with Protein A/G was used to capture various antibodies, respectively, and then the recombinant protein PD1-His or PD-L1-His was injected to obtain the binding-dissociation curve, which was eluted with 6M guanidine hydrochloride regeneration buffer for next cycle. Data were analyzed using the Biacore 8K Evaluation Software.
(In general: Surface plasmon resonance follows binding to a sensor surface in real time, without labels.)

Experiment [6] concerns the target T2, PD-L1-ECD-hFc. Kind of experiment: competition ELISA: blocks biotinylated PD-L1-ECD-hFc binding to coated PD1-ECD-hFc. Here is the method:
Human PD-1-ECD-hFc was diluted to 2 μg/ml with sodium carbonate buffer (1.59 g Na₂CO₃ and 2.93 g NaHCO₃ dissolved in 1 L of pure water), and added into a 96-well ELISA plate with a multichannel pipette at 100 μl/well, incubated at room temperature for 4 h; washed once with PBST, blocked with PBST containing 1% BSA at 200 μl/well, incubated at room temperature for 2 h; the blocking solution was discarded, the plate was patted dry, and placed at 4° C. for later use. […] OD450 values were read with a microplate reader (SpectraMax 190). Graphing and data analysis were performed using GraphPad Prism6, and IC50 values were calculated.

Experiment [7] addresses T3, PD1-His. The experiment in a line: ELISA, coated PD1-His.
For experiment [8], the target named is T4, PD1-ECD-hFc. The experiment in a line: ELISA, coated PD1-ECD-hFc. Here is the method:
as §1

The target of experiment [9] is T3, PD1-His. Kind of experiment: SPR (Biacore 8K), antibody captured on Protein A/G chip, PD1-His injected. Here is the method:
as §2

Experiment [10] has as its target T2, PD-L1-ECD-hFc. The experiment in a line: ELISA, plate coated with PD-L1-ECD-hFc 10 ng/well, OD450. The method, then:
as §1

Where “and” joins values, the source holds several entries; their conditions need not be identical. Equal entries are not always repeated.

For orientation: EC50 means the concentration giving half of the maximal effect. In general, Kd refers to a measure of binding affinity in units of concentration. Lower therefore signals higher affinity. By koff is commonly meant a measure of how fast the partners let go of each other. A word on the kon: it is the rate constant with which the complex forms. Read a low kon as slow association. The IC50 is the concentration needed to halve the response being measured.

T2 sequence (Q9NZQ7 19-238 limits assumed): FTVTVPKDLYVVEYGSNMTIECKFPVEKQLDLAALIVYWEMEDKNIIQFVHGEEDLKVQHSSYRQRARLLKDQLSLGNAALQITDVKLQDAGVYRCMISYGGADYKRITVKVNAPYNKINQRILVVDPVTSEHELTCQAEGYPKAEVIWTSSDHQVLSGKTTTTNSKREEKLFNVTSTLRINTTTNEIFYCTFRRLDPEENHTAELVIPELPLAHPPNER
T1 sequence (Q9NZQ7 19-238): as the sequence (Q9NZQ7 19-238 limits assumed) above
T4 sequence (Q15116 25-170 limits assumed): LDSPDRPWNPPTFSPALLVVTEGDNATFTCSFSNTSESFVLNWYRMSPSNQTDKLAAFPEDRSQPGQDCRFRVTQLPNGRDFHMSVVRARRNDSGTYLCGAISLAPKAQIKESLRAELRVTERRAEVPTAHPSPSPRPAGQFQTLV
T3 sequence (Q15116 25-170): as the sequence (Q15116 25-170 limits assumed) above

B1: Anti-PDL1 (antibody, human IgG1, kappa, V domains shown)
VH: QVQLQQSGGGLVKPSQSLSLTCTVSGFSLTSYGVHWVRQPPGKGLEWIGLIWSGGGTDYNPSLKSRLTISRDTSKNQVSFKISSLTAADTAVYYCARQLGLRAMDYWGQGTSVTVSS
VL: EIVLTQSPDFLSVTPKEKVTITCRASQSIGTTIHWYQQKPDQSPKLLIKYASQSFSGVPSRFSGSGSGTDFTLTINSVEAEDAATYYCQQSNSWPLTFGAGTKLEIKR
notes: Humanized from murine M8; human IgG1 / kappa; also called humanized anti-human PD-L1 antibody; Anti-PDL1-HC+Anti-PDL1-LC
Consider B1, for which, in experiment [1], the EC50 is 0.12 nM and 0.102 nM. The molecule also had an EC50 in experiment [2] of 0.125 nM. In addition, the binding result in experiment [3] is reported as “no binding (tested: log10(nM) about 2.4 (about 250 nM))”. Also, in [4], the binding result is “no binding (tested: log10(nM) about 2.1 (about 130 nM))”. In experiment [5], the Kd turned out to be 0.843 nM, the koff amounted to 0.00138 s⁻¹ and the kon turned out to be 1.63e+06 M⁻¹ s⁻¹. The molecule further gave an IC50 in experiment [6] of 1.37 nM.

B2: 609-HC+Anti-PDL1-LC (antibody, human IgG4 S228P, kappa, V domains shown)
VH: EVKLVESGGGLVQPGGSLRLSCAASGFAFSSYDMSWVRQAPGKRLEWVATISGGGRYTYYPDTVKGRFTISRDNAKNSHYLQMNSLRAEDTAVYFCASPYGGYFDVWGQGTLVTVSS
VL: B1 VL
notes: also called hybrid antibody
Turning to B2, the response in [7] was half-maximal at 0.382 nM (EC50). The same molecule came in with an EC50 in [8] of 0.243 nM. In experiment [9], the dissociation constant Kd was determined as 34.9 nM, the koff amounted to 0.00439 s⁻¹ and the kon is 126000 M⁻¹ s⁻¹.

B3: Anti-PDL1-HC+609-LC (antibody, human IgG1, kappa, V domains shown)
VH: B1 VH
VL: EIVLTQSPATLSLSPGERATLSCRASQSISNFLHWYQQKPGQAPRLLIKYASQSISGIPARFSGSGSGTDFTLTISSLEPEDFAVYFCQQSNSWPHTFGQGTKVEIKR
notes: also called hybrid antibody
For the molecule B3, the binding result in [4] is “no binding (tested: log10(nM) about 2.1 (about 130 nM))”.

B4: mAb1-25-Hu (609) (antibody, human IgG4 S228P, kappa, V domains shown)
VH: B2 VH
VL: B3 VL
notes: Humanized anti-human PD-1 monoclonal antibody, human IgG4 (S228P) / kappa
Consider B4, for which, in experiment [10], the binding result is given as “no binding (tested: log10(nM) about 2.1 (about 130 nM))”.

B5: PDL1-Fab-609-IgG4 (bispecific antibody)
heavy: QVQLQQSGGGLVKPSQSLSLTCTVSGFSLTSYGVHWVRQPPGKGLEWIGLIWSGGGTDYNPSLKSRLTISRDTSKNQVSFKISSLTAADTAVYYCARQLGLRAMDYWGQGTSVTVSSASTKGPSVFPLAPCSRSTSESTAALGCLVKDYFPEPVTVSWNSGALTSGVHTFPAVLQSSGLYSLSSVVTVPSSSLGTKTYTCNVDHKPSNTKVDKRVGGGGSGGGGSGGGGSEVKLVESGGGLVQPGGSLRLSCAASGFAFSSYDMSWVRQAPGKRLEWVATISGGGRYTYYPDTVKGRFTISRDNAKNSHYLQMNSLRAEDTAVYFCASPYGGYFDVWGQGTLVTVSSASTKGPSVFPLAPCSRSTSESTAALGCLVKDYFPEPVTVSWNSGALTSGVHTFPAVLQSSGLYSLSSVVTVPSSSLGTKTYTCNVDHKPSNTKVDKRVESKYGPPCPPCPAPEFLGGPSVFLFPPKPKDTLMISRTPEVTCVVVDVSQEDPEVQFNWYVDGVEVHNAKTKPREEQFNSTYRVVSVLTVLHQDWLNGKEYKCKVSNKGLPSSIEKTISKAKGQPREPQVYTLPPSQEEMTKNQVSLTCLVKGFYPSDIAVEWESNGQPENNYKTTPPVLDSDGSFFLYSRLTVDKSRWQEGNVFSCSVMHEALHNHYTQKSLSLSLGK
light: EIVLTQSPDFLSVTPKEKVTITCRASQSIGTTIHWYQQKPDQSPKLLIKYASQSFSGVPSRFSGSGSGTDFTLTINSVEAEDAATYYCQQSNSWPLTFGAGTKLEIKRTVAAPSVFIFPPSDEQLKSGTASVVCLLNNFYPREAKVQWKVDNALQSGNSQESVTEQDSKDSTYSLSSTLTLSKADYEKHKVYACEVTHQGLSSPVTKSFNRGEC
notes: expressed with the common light chain Anti-PDL1-LC; also called tetravalent bispecific antibody against PD-1 and PD-L1
Consider B5, for which the results for the EC50 in experiment [7] and in [1] were 5.31 nM and 0.14 nM, respectively.

B6: 609-Fab-PDL1-IgG4 (bispecific antibody)
heavy: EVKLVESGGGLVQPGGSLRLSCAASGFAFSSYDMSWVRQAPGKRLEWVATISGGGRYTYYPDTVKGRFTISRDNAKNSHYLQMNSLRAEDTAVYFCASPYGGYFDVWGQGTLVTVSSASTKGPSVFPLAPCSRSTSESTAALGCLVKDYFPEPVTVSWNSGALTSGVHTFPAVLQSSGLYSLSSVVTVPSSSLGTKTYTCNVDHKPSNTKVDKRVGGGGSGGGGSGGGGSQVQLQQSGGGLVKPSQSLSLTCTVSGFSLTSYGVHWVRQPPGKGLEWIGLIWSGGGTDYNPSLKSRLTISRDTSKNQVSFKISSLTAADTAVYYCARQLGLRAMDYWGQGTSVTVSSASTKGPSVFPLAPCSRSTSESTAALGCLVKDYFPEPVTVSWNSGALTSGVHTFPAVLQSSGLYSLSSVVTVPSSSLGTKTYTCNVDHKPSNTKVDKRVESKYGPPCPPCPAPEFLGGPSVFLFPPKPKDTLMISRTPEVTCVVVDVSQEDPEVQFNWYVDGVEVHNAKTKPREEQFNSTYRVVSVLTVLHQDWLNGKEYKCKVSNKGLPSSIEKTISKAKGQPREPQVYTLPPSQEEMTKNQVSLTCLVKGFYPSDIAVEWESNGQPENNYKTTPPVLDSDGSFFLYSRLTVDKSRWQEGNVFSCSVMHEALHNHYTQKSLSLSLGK
light: B5 light
notes: as for B5
In experiment [7], B6 registered a concentration for a half-maximal effect (EC50) of 0.421 nM. In experiment [1], this molecule came in with an EC50 of 0.135 nM. In experiment [9], the dissociation constant Kd came out at 25.7 nM, the koff turned out to be 0.00443 s⁻¹ and the kon stood at 173000 M⁻¹ s⁻¹. In experiment [5], this molecule showed an equilibrium dissociation constant (Kd) of 0.608 nM, a koff of 0.00112 s⁻¹ and a kon of 1.85e+06 M⁻¹ s⁻¹.
